Molecular target: human-derived insoluble fibrin (human) (UniProt P02671)
Assay: ELISA, peroxidase-labelled antibody on fibrin plate; 0.1 μg/mL of 443-2 gave about the signal of 10 μg/mL of the reference

Chain of UniProt P02671 (P02671 36-629 limits assumed, chain 1 of 3): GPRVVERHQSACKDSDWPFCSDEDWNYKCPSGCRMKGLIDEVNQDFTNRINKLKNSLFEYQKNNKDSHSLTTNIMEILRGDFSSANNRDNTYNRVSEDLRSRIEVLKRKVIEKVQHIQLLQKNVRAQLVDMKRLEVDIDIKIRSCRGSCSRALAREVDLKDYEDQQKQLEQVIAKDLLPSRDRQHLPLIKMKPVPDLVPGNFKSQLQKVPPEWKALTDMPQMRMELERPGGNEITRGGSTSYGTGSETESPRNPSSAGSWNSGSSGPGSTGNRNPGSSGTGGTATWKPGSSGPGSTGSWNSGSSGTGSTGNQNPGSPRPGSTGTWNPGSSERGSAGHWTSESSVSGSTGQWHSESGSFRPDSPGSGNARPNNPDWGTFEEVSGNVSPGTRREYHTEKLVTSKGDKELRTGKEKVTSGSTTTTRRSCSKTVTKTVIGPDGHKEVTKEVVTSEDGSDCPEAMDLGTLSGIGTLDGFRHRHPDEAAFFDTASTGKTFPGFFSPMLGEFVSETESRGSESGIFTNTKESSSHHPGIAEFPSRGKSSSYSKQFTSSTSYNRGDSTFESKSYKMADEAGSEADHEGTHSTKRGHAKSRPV
Chain of UniProt P02671 (chain, as listed by the source limits assumed, chain 2 of 3): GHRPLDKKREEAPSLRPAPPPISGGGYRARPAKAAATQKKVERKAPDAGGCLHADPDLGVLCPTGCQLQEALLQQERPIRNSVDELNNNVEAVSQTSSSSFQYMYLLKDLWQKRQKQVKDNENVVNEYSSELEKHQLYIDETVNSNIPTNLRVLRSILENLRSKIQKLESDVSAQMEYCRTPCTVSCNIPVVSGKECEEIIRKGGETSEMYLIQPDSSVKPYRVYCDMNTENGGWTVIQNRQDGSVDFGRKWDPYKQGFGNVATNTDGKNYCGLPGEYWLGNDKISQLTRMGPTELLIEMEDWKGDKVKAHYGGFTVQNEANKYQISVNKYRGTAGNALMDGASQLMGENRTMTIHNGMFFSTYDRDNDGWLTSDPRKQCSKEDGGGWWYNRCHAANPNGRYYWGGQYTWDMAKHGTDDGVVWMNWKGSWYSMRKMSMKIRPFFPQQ
Chain of UniProt P02671 (chain, as listed by the source limits assumed, chain 3 of 3): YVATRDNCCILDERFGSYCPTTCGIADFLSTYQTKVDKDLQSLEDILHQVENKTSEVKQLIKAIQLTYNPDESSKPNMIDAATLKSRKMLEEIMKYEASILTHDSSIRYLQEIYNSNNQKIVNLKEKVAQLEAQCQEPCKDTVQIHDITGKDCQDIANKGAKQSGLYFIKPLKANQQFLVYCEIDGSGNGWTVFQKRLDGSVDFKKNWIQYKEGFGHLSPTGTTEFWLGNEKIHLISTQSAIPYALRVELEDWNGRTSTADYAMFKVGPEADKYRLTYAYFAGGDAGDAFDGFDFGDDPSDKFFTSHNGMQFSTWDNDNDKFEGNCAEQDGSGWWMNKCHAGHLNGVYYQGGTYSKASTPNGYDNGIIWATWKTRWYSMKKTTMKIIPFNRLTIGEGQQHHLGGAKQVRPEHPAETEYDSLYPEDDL

- fold affinity for insoluble fibrin against the 102-10 antibody (printed 102-12): 100 times
B1: 443-2 antibody (antibody, V domains shown)
VH: QIQLVQSGPELKKPGESVKISCKASGYTFTDYAMNWVKQAPGNGLKWMGWINTQTGKPTYADDFKQRFVFSLETSATTAYLQINNLNIEDTATYFCTRLMDAWGQGASVTVSS
VL: DIVMTQSPSSLAVSAGETVTINCKSSQSLLSSGNQKNYLAWYQQKPGQSPKLLIYLASTRESGVPDRLIGSGSGTDFTLTISSMQAEDLAIYYCQQYYETPHTFGAGTKLELKR
